Read-outs that look alike come from different tables or passages of the source. Each block holds one binder with its values, some of them ahead of it.
How the values were obtained:
[1] = biological target: T1, recombinant human OX40-Fc (human, UniProt P43489 29-214); experiment: ELISA, OX40-Fc coated, VHH at 40 nM
T1 construct: also called rh-OX40-Fc; human OX40 hFC (R & D systems)
T1 sequence: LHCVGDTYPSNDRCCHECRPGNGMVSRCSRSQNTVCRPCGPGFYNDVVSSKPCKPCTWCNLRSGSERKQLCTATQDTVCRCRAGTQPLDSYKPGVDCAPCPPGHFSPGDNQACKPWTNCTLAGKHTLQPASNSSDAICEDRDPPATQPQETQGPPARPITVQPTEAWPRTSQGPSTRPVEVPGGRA
Protocol: (§1) After four times washing with PBST, the plate was incubated with detecting antibody anti-his-HRP (1:4000 dilution) 100 μl per well for one hour with shaking at 60 rpm. The plate was developed with 100 μL of TMB per well in the dark and then stopped by 50 μL of stop solution per well. […] Data was analyzed using GraphPad Prisma 9.1.

[2] = biological target: T1, recombinant human OX40-Fc; experiment: ELISA, OX40-Fc coated, VHH at 0.064 nM
Protocol: as §1

[3] = biological target: T1, recombinant human OX40-Fc; experiment: blocking ELISA, OX40-hFc premixed with VHH on coated OX40L-mFc; partial blocker; partial blocker
Protocol: (§2) Blocking Assay. The 96-well plate was coated with 100 μL of 1 μg/mL OX40L-mFc prepared in antigen coating buffer overnight at 4° C., then blocked with 2% BSA for 1 hour at 25° C. […] The plate was washed with PBST four times, then incubated with Mouse anti-human IgG Fc-HRP at 25° C. for 1 hour. After four times of wash with PBST, the plate was developed with 100 μL of TMB per well for 10 to 20 min in the dark and then stopped by adding 50 μL of Stop Solution.

[4] = biological target: T1, recombinant human OX40-Fc; experiment: BLI, VHH-His on anti-His tips, OX40 hFc in solution;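 further: kinetics recorded at 30 °C in PBS pH 7.2, with 200 s of association followed by dissociation monitored in PBS lacking the OX40 protein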
Protocol: Bio-Layer Interferometry (BLI) kinetic binding analysis. […] Affinity measurements were performed with Gator equipped with Anti-Penta-His capture (HIS1K) biosensor tips. The assay was performed at 30° C. in 1×PBS buffer (Gibco®, PBS pH7.2). Samples were agitated at 1000 rpm. Prior to analysis, sensors were humidified for 15 min. Purified anti-OX40 VHH was tested for its binding capacity with HIS1K sensor tips. Tips were loaded using 20 μg/ml of anti-OX40 VHH. Loading proceeded for 300 s resulting in capture levels of between 1.8 and 2 nm. […] Association was initiated and monitored for 200 sec, after which tips were transferred to 1×PBS buffer without Factor protein (Gibco, PBS pH 7.2), in order to monitor dissociation. Sensor data was collected throughout the experiments, processed, and analyzed using the Gator data analysis software.

[5] = biological target: T1, recombinant human OX40-Fc; experiment: ELISA, OX40-Fc coated, VHH at 200 nM
Protocol: as §1

[6] = biological target: T1, recombinant human OX40-Fc; experiment: ELISA, OX40-Fc coated, VHH at 1000 nM
Protocol: as §1

[7] = biological target: T1, recombinant human OX40-Fc; experiment: ELISA, OX40-Fc coated, VHH at 1.6 nM
Protocol: as §1

[8] = biological target: T1, recombinant human OX40-Fc; experiment: ELISA, OX40-Fc coated, VHH at 0.0128 nM
Protocol: as §1

[9] = biological target: T1, recombinant human OX40-Fc; experiment: ELISA, OX40-Fc coated, VHH at 0.32 nM
Protocol: as §1

[10] = biological target: T1, recombinant human OX40-Fc; experiment: ELISA, OX40-Fc coated, VHH at 8 nM
Protocol: as §1

[11] = biological target: T2, recombinant human CD40-Fc (human, UniProt P25942 21-193); experiment: ELISA, CD40-Fc coated, VHH at 0.32 nM
T2 construct: also called rh-CD40-Fc; CD40-hFc
Protocol: (§3) After four times washing with PBST, the plate was incubated with detecting antibody anti-his-HRP (1:4000 dilution) 100 μl per well for one hour with shaking at 60 rpm. The plate was developed with 100 μL of TMB per well in the dark and then stopped by 50 μL of stop solution per well.

[12] = biological target: T2, recombinant human CD40-Fc; experiment: ELISA, CD40-Fc coated, VHH at 200 nM
Protocol: as §3

[13] = biological target: T2, recombinant human CD40-Fc; experiment: ELISA, CD40-Fc coated, VHH at 1.6 nM
Protocol: as §3

[14] = biological target: T2, recombinant human CD40-Fc; experiment: ELISA, CD40-Fc coated, VHH at 8 nM
Protocol: as §3

[15] = biological target: T2, recombinant human CD40-Fc; experiment: blocking ELISA: CD40L-mFc (1.m18) coated, VHH premixed with CD40-hFc, bound CD40-hFc detected with anti-human IgG Fc-HRP, OD450
Protocol: The 96-well plate was coated with 100 μL of 1 μg/mL CD40L-mFc prepared in antigen coating buffer overnight at 4° C., then blocked with 2% BSA for 1 hour at 25° C. […] The plate was washed with PBST four times, then incubated with Mouse anti-human IgG Fc-HRP at 25° C. for 1 hour. After four times of wash with PBST, the plate was developed with 100 μL of TMB per well for 10 to 20 min in the dark and then stopped by adding 50 μL of Stop Solution.

[16] = biological target: T2, recombinant human CD40-Fc; experiment: ELISA, CD40-Fc coated, VHH at 1000 nM
Protocol: as §3

[17] = biological target: T2, recombinant human CD40-Fc; experiment: ELISA, CD40-Fc coated, VHH at 0.0026 nM
Protocol: as §3

[18] = biological target: T2, recombinant human CD40-Fc; experiment: ELISA, CD40-Fc coated, VHH at 0.013 nM
Protocol: as §3

[19] = biological target: T2, recombinant human CD40-Fc; experiment: ELISA, CD40-Fc coated, VHH at 0.064 nM
Protocol: as §3

[20] = biological target: T3, Human CD40 antigen (recombinant, BLI) (human, UniProt P25942 21-193); experiment: BLI, VHH-His on anti-His tips, human CD40 in solution;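 further: kinetics measured at 30 °C in PBS pH 7.2, association tracked for 200 s, then dissociation followed in PBS lacking CD40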
T3 construct: also called rh-CD40
Protocol: Bio-Layer Interferometry (BLI) kinetic binding analysis. […] Affinity measurements were performed with Gator equipped with Anti-Penta-His capture (HIS1K) biosensor tips. The assay was performed at 30° C. in 1×PBS buffer (Gibco®, PBS pH7.2). Samples were agitated at 1000 rpm. Prior to analysis, sensors were humidified for 15 min. […] Sensor data was collected throughout the experiments, processed, and analyzed using the Gator data analysis software.
Briefly, purified anti-CD40 VHH was tested for its binding capacity with HIS1K sensor tips. Tips were loaded using 20 μg/ml of anti-CD40 VHH. Loading proceeded for 300 sec resulting in capture levels of between 1.8 and 2 nm. […] Association was initiated and monitored for 200 sec, after which tips were transferred to 1×PBS buffer without CD40 protein in order to monitor dissociation.

[21] = biological target: T2, recombinant human CD40-Fc; experiment: ELISA, CD40-Fc coated, VHH at 40 nM
Protocol: as §3

[22] = biological target: T4, Human 41BB antigen (BLI) (human, UniProt Q07011 24-183); experiment: BLI, VHH-His on anti-His tips, human 41BB in solution;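 further: association tracked for 200 s, after which dissociation was followed in 1×PBS free of 41BB protein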
T4 construct: also called 41BB protein
Protocol: Tips were loaded using 20 μg/ml of anti-41BB VHH. Loading proceeded for 300 sec resulting in capture levels of between 1.8 and 2 nm. […] Association was initiated and monitored for 200 sec, after which tips were transferred to 1×PBS buffer without 41BB protein, in order to monitor dissociation.

[23] = biological target: T5, 4-1BB Fc (human, UniProt Q07011 24-183); experiment: blocking ELISA: 41BBL-mFc (1.m32) coated, VHH premixed with 41BB-hFc, bound 41BB-hFc detected with anti-human IgG Fc-HRP, OD450
T5 construct: also called rh-41BB; 41BB-hFc
Protocol: The 96-well plate was coated with 100 μL of 1 μg/mL 41BBL-mFc prepared in antigen coating buffer overnight at 4° C., then blocked with 2% BSA for 1 hour at 25° C. […] The plate was washed with PBST four times, then incubated with Mouse anti-human IgG Fc-HRP at 25° C. for 1 hour. After four times of wash with PBST, the plate was developed with 100 μL of TMB per well for 10 to 20 min in the dark and then stopped by adding 50 μL of Stop Solution.

[24] = biological target: T1, recombinant human OX40-Fc; experiment: blocking ELISA, OX40-hFc premixed with VHH on coated OX40L-mFc; full blocker; full blocker
Protocol: as §2

[25] = biological target: T6, human serum albumin (human, UniProt P02768 25-609); experiment: BLI (Gator), His-tagged VHH on anti-His sensor, HSA 100 nM in solution
T6 construct: also called HSA
Protocol: (§4) Kinetic binding analysis of MSA VHHs were performed with Gator Prime system equipped with analyze software. […] The experiments were done at 30° C. Prior to analysis, sensors were socked in Q buffer for 600 sec with shaking at 1000 rpm, and then 2 μM of HIS tagged MSA VHHs were loaded to Anti-His sensors with shaking at 400 rpm for 120 sec. Loaded sensors were transferred into Q buffer for 60 sec. Association of HSA or MSA at 100 nM was initiated and monitored for 120-180 sec with shaking at 1000 rpm, and finally dissociation in Q buffer for 120-180 sec with 1000 rpm shaking. Software V2.0 (Gator Bio) was used for data analysis. The on-rate (Kₒₙ) and off-rate (Kd) were determined by fitting of the association and dissociation phases of each sample. The mathematical model used assumes a 1:1 stoichiometry, fitting only one analyte in solution binding to one binding site on the surface. The equilibrium dissociation constant (KD), a measure for affinity, was then calculated as the ratio of Kd and Kₒₙ.

[26] = biological target: T7, murine serum albumin (murine, UniProt P07724 25-608); experiment: BLI (Gator), His-tagged VHH on anti-His sensor, murine serum albumin 100 nM in solution
T7 construct: As antigen 'MSA' means murine serum albumin; the VHHs also carry the label MSA; also called MSA
Protocol: as §4

[27] = biological target: T6, human serum albumin; experiment: BLI (Gator), His-tagged VHH on anti-His sensor, HSA 100 nM in solution; remark: listed apart in the source
Protocol: as §4

[28] = biological target: T7, murine serum albumin; experiment: ELISA, murine serum albumin coated, VHH 0.128 nM
Protocol: The 96-well plate was coated with 100 μL per well of HSA or MSA (murine serum albumin) prepared at 1 μg/ml in coating buffer at 4° C. overnight, then blocked with 200 μL per well of casein for one hour at room temperature. MSA VHHs were made into a series of dilutions and added to HSA or MSA coated plate for one hour incubation. The plate was washed with PBST four times, then incubated with Streptavidin conjugated with HRP at 25° C. for 1 hour. After three times of wash with 250 μL PBST per well, the plate was developed with 100 μL of TMB per well for 10 to 20 min in the dark and then stopped by adding 100 μL of Stop Solution.

[29] = biological target: T7, murine serum albumin; experiment: BLI (Gator), His-tagged VHH on anti-His sensor, murine serum albumin 100 nM in solution; remark: listed apart in the source
Protocol: as §4

T4 sequence (Q07011 24-183 limits assumed): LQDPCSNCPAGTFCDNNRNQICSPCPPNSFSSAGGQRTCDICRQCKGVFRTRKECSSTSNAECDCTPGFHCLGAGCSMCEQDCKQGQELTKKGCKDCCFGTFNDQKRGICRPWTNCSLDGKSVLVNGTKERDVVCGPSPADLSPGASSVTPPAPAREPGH
T2 sequence (P25942 21-193): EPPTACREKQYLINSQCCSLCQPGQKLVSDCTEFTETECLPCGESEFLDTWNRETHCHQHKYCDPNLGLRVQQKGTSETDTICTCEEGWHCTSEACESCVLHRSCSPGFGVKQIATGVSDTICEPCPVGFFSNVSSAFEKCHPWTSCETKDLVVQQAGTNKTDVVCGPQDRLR
T3 sequence (P25942 21-193 limits assumed): as the sequence (P25942 21-193) above
T5 sequence (Q07011 24-183): as the sequence (Q07011 24-183 limits assumed) above

OD450 [1]: 1.49
OD450 [2]: 0.076
EC50 [3]: 1.98 nM
Kd [4]: 0.185 nM
koff [4]: 8.73e-05 s⁻¹
kon [4]: 472000 M⁻¹ s⁻¹
OD450 [5]: 1.58
OD450 [6]: 1.78
OD450 [7]: 0.463
OD450 [8]: 0.062
OD450 [9]: 0.126
OD450 [10]: 1.12
B1: pgXX88-SZ-4 (VHH, not shown: small tags and cut ends)
VHH: QVQLVESGGGLAQPGSSLRLSCTASGTVFSILSATWFRQAPGKAHEARELVAFISSDGVSMHADSVKGRFTISRDNAASTVYLQMDNLQPEDTAVYFCKLSNSMMSLEYWGRGTQVTVSS
notes: also called ppXX88-SZ-4

OD450 [11]: 0.251
OD450 [12]: 1.84
OD450 [13]: 0.903
OD450 [14]: 1.7
IC50 (read off the curve) [15]: ~20 nM
OD450 [16]: 1.81
OD450 [17]: 0.078
OD450 [18]: 0.055
OD450 [19]: 0.084
Kd [20]: < 0.001 nM
koff [20]: 1e-05 s⁻¹
kon [20]: 607000 M⁻¹ s⁻¹
OD450 [21]: 1.71
B2: pgDD40-HZ-24 (VHH, not shown: small tags and cut ends)
VHH: EVQLVESGGGSVQAGGSLRLSCAASLSTFSNYRMGWFRRAPGKERELVARIEPHGVVDYGDSVKGRFTISRDNAKNTVTVYLHMNSLKPEDTAVYYCNALRLISGRYDPLFSSWGQGTQVTVSS
notes: also called pgDD40-HG-24

Kd [22]: 2.35 nM
koff [22]: 0.00121 s⁻¹
kon [22]: 512000 M⁻¹ s⁻¹
IC50 (read off the curve) [23]: ~0.5 nM
B3: 4-1BB-59 (VHH, not shown: small tags and cut ends)
VHH: EVQLVESGGGLVQPGESLRLSCAASGDTVSGYVMLWWRQAPGKERELVAAISSVGYTYYTDSVKGRFTISRDNAKNTVYLQMNSLKPEDTAVYYCAADPASISTRSAYWGQGTQVTVSS

OD450 [1]: 1.95
EC50 [24]: 0.12 nM
OD450 [2]: 0.166
Kd [4]: 0.48 nM
koff [4]: 0.000259 s⁻¹
kon [4]: 539000 M⁻¹ s⁻¹
OD450 [5]: 1.94
OD450 [6]: 2.12
OD450 [7]: 1.66
OD450 [8]: 0.068
OD450 [9]: 0.736
OD450 [10]: 1.89
B4: pgXX88-SZ-15 (VHH, not shown: small tags and cut ends)
VHH: QVQLVESGGGLVQPGGSLRLSCSPSEGAFKMLTTGWFRQVLGKEREFVSAISWGGGATYYADSVKGRFTVSRDNAKNTVYLQMNSLKPEDTAVYYCAVDTGNGVATNIRSQSRYDYWGQGTQVTVSS

Kd [25]: 7.16 nM
koff [25]: 0.000752 s⁻¹
kon [25]: 105000 M⁻¹ s⁻¹
Kd [26]: 8.83 nM
koff [26]: 0.0011 s⁻¹
kon [26]: 125000 M⁻¹ s⁻¹
Kd [27]: 11.3 nM
koff [27]: 0.00101 s⁻¹
kon [27]: 89600 M⁻¹ s⁻¹
ELISA OD450 [28]: 0.07
Kd [29]: 4.49 nM
koff [29]: 0.000644 s⁻¹
kon [29]: 143000 M⁻¹ s⁻¹
B5: MSA4 (VHH)
VHH: EVQLVEFGGGLVQAGGSLRLSCAASGRTDSAYRMGWFRQAPGKEREFVSAINWSDGRTVYLDSVKGRFTISRDNAKNMVYLQMNSLKPEDTAVYYCAADPDSRLYYTVPQNYDYWGQGTQVTVSS
notes: Llama single domain antibody with C-terminal His-tag, made in HEK293; not shown: C-terminal His-tag

OD450 [1]: 1.54
EC50 [24]: 0.12 nM
OD450 [2]: 0.369
Kd [4]: < 0.001 nM
koff [4]: 1e-06 s⁻¹
kon [4]: 662000 M⁻¹ s⁻¹
OD450 [5]: 1.61
OD450 [6]: 1.62
OD450 [7]: 1.46
OD450 [8]: 0.119
OD450 [9]: 0.993
OD450 [10]: 1.48
B6: pgXX88-10 (VHH, not shown: small tags and cut ends)
VHH: EVQLVESGGGLVQAGESLRLSCSASGSIRLNAVGWFRQAPVNQRLMVATITHNNSTNYADSVQGRFTIARDDAKNTVTLQMNSLKPEDTAVYMCKVYQLPVPISSHDDYWGQGTQVTVSS

Source: US20250376535A1 (BEIJING STARMAB BIOMED TECHNOLOGY, published 2025)
